For assay [1], the target named is T1, hVISTA-ECD 6-His tag (human, UniProt Q9H7M9 33-193).
T1 construct: also called monovalent hVISTA-ECD; human VISTA
The assay can be described thus: SPR, Ab on Protein A, hVISTA analyte, pH 6.9. As to the method:
(§1) Further binding kinetic experiments were performed at various pHs on VISTA antibodies described herein by SPR as generally described in Example 9 above. Antibodies were normalized to 50 nM concentration in PBST pH 7.4 and captured on a Protein A CM5 chip (ID 4931) by injecting for 45 seconds at a 5 µL/min flow rate. An 8-point human VISTA titration ([…]) was prepared in PBST at pH 7.4, 6.9, 6.45, and 6.0. Titrations were injected over the captured antibodies for 180 seconds at 30 µL/min. Sensorgrams were fit to a 1:1 binding model in T200 evaluation software and the kinetic constants were reported.
(§2) Each table reports the data at one of the four tested pHs (7.4, 6.9, 6.45, and 6.0, respectively). The 8-point hVISTA titration used in these assays was chosen to provide increased confidence in kinetic values reported at neutral pH conditions. A relatively stringent cutoff for non-binding was applied in this assay. Certain progeny of P1-061029 antibody (P1-068757, ‘759, ‘765, ‘771, and ‘775) show no binding to hVISTA at micromolar concentrations at pH 7.4, while ‘761 and ‘767 show no binding to hVISTA at 100 nM at pH 7.4 but do show binding to hVISTA at micromolar concentrations.

In assay [2] the target is T1, hVISTA-ECD 6-His tag. Nature of the assay: SPR, Ab on Protein A, hVISTA analyte, pH 6.0.
The target in assay [3] is T1, hVISTA-ECD 6-His tag. Nature of the assay: SPR, Ab on Protein A, hVISTA analyte, pH 6.45.
Assay [4] deals with T1, hVISTA-ECD 6-His tag. The assay can be described thus: SPR; KD at pH 6.9 over KD at pH 6.0 (head prints 7.4). The procedure: as §1, §2
Assay [5] addresses T1, hVISTA-ECD 6-His tag. Nature of the assay: SPR; kd at pH 6.9 over kd at pH 6.0 (head prints 7.4). As to the method: as §1, §2
The target of assay [6] is T1, hVISTA-ECD 6-His tag. The assay can be described thus: SPR; KD at pH 6.45 over KD at pH 6.0 (head prints 7.4).
Assay [7] has as its target T1, hVISTA-ECD 6-His tag. Nature of the assay: SPR; kd at pH 6.45 over kd at pH 6.0 (head prints 7.4). As to the method: as §1, §2

Substitutions are numbered along the chain they refer to.

T1 sequence (Q9H7M9 other isoform, or with tags, fused parts or gaps limits assumed): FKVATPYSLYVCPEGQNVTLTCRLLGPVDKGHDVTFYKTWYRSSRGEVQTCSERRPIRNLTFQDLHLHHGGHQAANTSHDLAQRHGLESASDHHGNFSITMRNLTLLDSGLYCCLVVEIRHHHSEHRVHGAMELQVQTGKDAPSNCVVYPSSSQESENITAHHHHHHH

B1: P1-068761 (antibody, human IgG1, kappa)
heavy: EVQLVESGGGLVQPGKSLRLSCAASGFTLEDEAMHWVRQAPGKGLEWVSGINWNSEEIGYADSVKGRFTISRDNAKNSLYLQMNSLRTEDTALYYCAKVPGYSHGWIDAEDVWGQGTMVTVSSASTKGPSVFPLAPSSKSTSGGTAALGCLVKDYFPEPVTVSWNSGALTSGVHTFPAVLQSSGLYSLSSVVTVPSSSLGTQTYICNVNHKPSNTKVDKRVEPKSCDKTHTCPPCPAPEAEGAPSVFLFPPKPKDTLMISRTPEVTCVVVDVSHEDPEVKFNWYVDGVEVHNAKTKPREEQYNSTYRVVSVLTVLHQDWLNGKEYKCKVSNKALPAPIEKTISKAKGQPREPQVYTLPPSREEMTKNQVSLTCLVKGFYPSDIAVEWESNGQPENNYKTTPPVLDSDGSFFLYSKLTVDKSRWQQGNVFSCSVMHEALHNHYTQKSLSLSPG
light: not shown
notes: also called P1-068761-20
Turning to B1, the Kd in assay [1] amounted to 142 nM; in assay [2], 2.71 nM; in assay [3], 16.2 nM. For the same molecule, the values for the koff in assay [1], in assay [2] and in assay [3] were 0.00832 s⁻¹, 0.00202 s⁻¹ and 0.00309 s⁻¹, respectively. Also, the kon is 58700 M⁻¹ s⁻¹ in assay [1], 745000 M⁻¹ s⁻¹ in assay [2] and 190000 M⁻¹ s⁻¹ in assay [3]. Besides, the “7.4 KD/ 6.0 KD” value in assay [4] came to 52.4; in assay [6], 6. In addition, the “7.4 kd/ 6.0 kd” value in assay [5] stood at 4.1; in assay [7] it was 1.5.

B2: P1-070904 (P1-068767_E30D) (antibody, human IgG1, kappa, V domains shown)
VH: EVQLVESGGGLVQPGKSLRLSCAASGFTLDDYAMHWVRQAPGKGLEWVSGIDWNSENIGYADSVKGRFTISRDNAKNSLYLQMNSLRTEDTALYYCAKVPGYSGGWIDAEDDWGQGTMVTVSS
VL: not shown
notes: also called P1-070904-3
In the case of B2, the values for the Kd in assay [1], in assay [2] and in assay [3] were 250 nM, 17 nM and 68 nM, respectively. The koff in assay [1] is 0.028 s⁻¹; in assay [2], 0.0038 s⁻¹; in assay [3], 0.0086 s⁻¹. The kon in assay [1] came to 110000 M⁻¹ s⁻¹; in assay [2], 230000 M⁻¹ s⁻¹; in assay [3], 130000 M⁻¹ s⁻¹. Further, the “7.4 KD/ 6.0 KD” value in assay [4] was determined as 14.9; in assay [6], 4.1. The figures for the “7.4 kd/ 6.0 kd” value in assay [5] and in assay [7] were 7.2 and 2.3, respectively.

B3: P1-070906 (P1-068767_D52N) (antibody, human IgG1, kappa, V domains shown)
VH: B2 VH with D30E, D52N
VL: not shown
notes: also called P1-070906-6
With B3, the Kd in assay [1] came to 220 nM; in assay [2] it was 6 nM; in assay [3] it was 31 nM. Further, the results for the koff in assay [1], in assay [2] and in assay [3] were 0.0084 s⁻¹, 0.0019 s⁻¹ and 0.0039 s⁻¹, respectively. Besides, the figures for the kon in assay [1], in assay [2] and in assay [3] were 38000 M⁻¹ s⁻¹, 310000 M⁻¹ s⁻¹ and 130000 M⁻¹ s⁻¹, respectively. The “7.4 KD/ 6.0 KD” value in assay [4] amounted to 36.5; in assay [6] it was 5.1. The “7.4 kd/ 6.0 kd” value came to 4.4 in assay [5] and 2.1 in assay [7].

B4: P1-070900 (P1-068761_E56N_H100G) (antibody, human IgG1, kappa, V domains shown)
VH: B2 VH with D30E, Y32E, D52N, D112V
VL: not shown
notes: also called P1-070900-3
In the case of B4, the results for the Kd in assay [1], in assay [2] and in assay [3] were 3700 nM, 17 nM and 130 nM, respectively. The koff was determined as 0.031 s⁻¹ in assay [1], 0.0084 s⁻¹ in assay [2] and 0.06 s⁻¹ in assay [3]. The kon in assay [1] turned out to be 8500 M⁻¹ s⁻¹; in assay [2] it was 500000 M⁻¹ s⁻¹; in assay [3], 450000 M⁻¹ s⁻¹. The “7.4 KD/ 6.0 KD” value in assay [4] worked out at 222; in assay [6] it was 8. The “7.4 kd/ 6.0 kd” value in assay [5] was 3.7; in assay [7], 7.1.

B5: P1-070908 (P1-068767_E55A) (antibody, human IgG1, kappa, V domains shown)
VH: B2 VH with D30E, E56A
VL: not shown
notes: also called P1-070908-6
Consider B5, for which the Kd was found to be 240 nM in assay [1], 10 nM in assay [2] and 54 nM in assay [3]. The koff in assay [1] was determined as 0.012 s⁻¹; in assay [2], 0.0028 s⁻¹; in assay [3], 0.006 s⁻¹. Further, the kon in assay [1] was found to be 51000 M⁻¹ s⁻¹; in assay [2], 270000 M⁻¹ s⁻¹; in assay [3], 110000 M⁻¹ s⁻¹. Also, the results for the “7.4 KD/ 6.0 KD” value in assay [4] and in assay [6] were 23 and 5.2, respectively. The “7.4 kd/ 6.0 kd” value in assay [5] turned out to be 4.4; in assay [7], 2.2.

B6: P1-070878 (P1-068761_E55A_E56N) (antibody, human IgG1, kappa, V domains shown)
VH: B2 VH with D30E, Y32E, D52N, E56A, G104H, D112V
VL: not shown
notes: also called P1-070878-3
Turning to B6, the Kd turned out to be 9800 nM in assay [1], 33 nM in assay [2] and 160 nM in assay [3]. The koff in assay [1] amounted to 0.028 s⁻¹; in assay [2], 0.0063 s⁻¹; in assay [3] it was 0.012 s⁻¹. For the same molecule, the kon worked out at 2900 M⁻¹ s⁻¹ in assay [1], 190000 M⁻¹ s⁻¹ in assay [2] and 78000 M⁻¹ s⁻¹ in assay [3]. Further, the figures for the “7.4 KD/ 6.0 KD” value in assay [4] and in assay [6] were 301 and 4.9, respectively. For the same molecule, the results for the “7.4 kd/ 6.0 kd” value in assay [5] and in assay [7] were 4.5 and 2, respectively.

B7: P1-070872 (P1-068761_H100G) (antibody, human IgG1, kappa, V domains shown)
VH: B2 VH with D30E, Y32E, D52N, N57E, D112V
VL: not shown
notes: also called P1-070872-4
In the case of B7, the Kd in assay [1] came out at 15000 nM; in assay [2], 8.2 nM; in assay [3], 68 nM. For the same molecule, the figures for the koff in assay [1], in assay [2] and in assay [3] were 0.028 s⁻¹, 0.0056 s⁻¹ and 0.025 s⁻¹, respectively. The figures for the kon in assay [1], in assay [2] and in assay [3] were 1900 M⁻¹ s⁻¹, 680000 M⁻¹ s⁻¹ and 360000 M⁻¹ s⁻¹, respectively. Moreover, the “7.4 KD/ 6.0 KD” value in assay [4] is 1820; in assay [6], 8.3. Moreover, the “7.4 kd/ 6.0 kd” value in assay [5] came to 5.1; in assay [7], 4.5.

B8: P1-070890 (P1-068761_E30D_E55A) (antibody, human IgG1, kappa, V domains shown)
VH: B2 VH with Y32E, D52N, E56A, N57E, G104H, D112V
VL: not shown
notes: also called P1-070890-3
As for B8, the Kd stood at 4400 nM in assay [1], 21 nM in assay [2] and 130 nM in assay [3]. Further, the koff in assay [1] is 0.04 s⁻¹; in assay [2], 0.0081 s⁻¹; in assay [3], 0.032 s⁻¹. For the same molecule, the results for the kon in assay [1], in assay [2] and in assay [3] were 9000 M⁻¹ s⁻¹, 390000 M⁻¹ s⁻¹ and 240000 M⁻¹ s⁻¹, respectively. Moreover, the “7.4 KD/ 6.0 KD” value in assay [4] turned out to be 211; in assay [6], 6.3. For the same molecule, the “7.4 kd/ 6.0 kd” value in assay [5] is 4.9; in assay [7], 3.9.

B9: P1-070870 (P1-068761_E56N) (antibody, human IgG1, kappa, V domains shown)
VH: B2 VH with D30E, Y32E, D52N, G104H, D112V
VL: not shown
notes: also called P1-070870-3
On to B9, for which the figures for the Kd in assay [1], in assay [2] and in assay [3] were 10000 nM, 32 nM and 150 nM, respectively. Moreover, the koff turned out to be 0.049 s⁻¹ in assay [1], 0.0063 s⁻¹ in assay [2] and 0.012 s⁻¹ in assay [3]. Besides, the kon came to 4900 M⁻¹ s⁻¹ in assay [1], 200000 M⁻¹ s⁻¹ in assay [2] and 80000 M⁻¹ s⁻¹ in assay [3]. For the same molecule, the “7.4 KD/ 6.0 KD” value was determined as 316 in assay [4] and 4.6 in assay [6]. Also, the “7.4 kd/ 6.0 kd” value in assay [5] is 7.9; in assay [7], 1.9.

B10: P1-070868 (P1-068761_E55A) (antibody, human IgG1, kappa, V domains shown)
VH: B2 VH with D30E, Y32E, D52N, E56A, N57E, G104H, D112V
VL: not shown
notes: also called P1-070868-6
In the case of B10, the results for the Kd in assay [1], in assay [2] and in assay [3] were 6700 nM, 5.4 nM and 36 nM, respectively. Besides, the koff was found to be 0.015 s⁻¹ in assay [1], 0.0023 s⁻¹ in assay [2] and 0.0087 s⁻¹ in assay [3]. Also, the results for the kon in assay [1], in assay [2] and in assay [3] were 2300 M⁻¹ s⁻¹, 430000 M⁻¹ s⁻¹ and 240000 M⁻¹ s⁻¹, respectively. Further, the “7.4 KD/ 6.0 KD” value in assay [4] was determined as 1240; in assay [6], 6.7. The “7.4 kd/ 6.0 kd” value in assay [5] is 6.5; in assay [7], 3.7.

B11: P1-070864 (P1-068761_E30D) (antibody, human IgG1, kappa, V domains shown)
VH: B2 VH with Y32E, D52N, N57E, G104H, D112V
VL: not shown
notes: also called P1-070864-3
Take B11: the Kd in assay [1] turned out to be 8100 nM; in assay [2], 15 nM; in assay [3], 110 nM. Also, the koff in assay [1] is 0.034 s⁻¹; in assay [2], 0.0068 s⁻¹; in assay [3], 0.046 s⁻¹. Besides, the kon in assay [1] was determined as 4200 M⁻¹ s⁻¹; in assay [2] it was 440000 M⁻¹ s⁻¹; in assay [3], 410000 M⁻¹ s⁻¹. For the same molecule, the “7.4 KD/ 6.0 KD” value in assay [4] came out at 523; in assay [6], 7.4. Moreover, the “7.4 kd/ 6.0 kd” value came out at 4.9 in assay [5] and 6.8 in assay [7].

The values above are taken from patent US20230192860A1 (Bristol-Myers Squibb, published 2023).
